Data set [1] in a line: Confocal immunofluorescence, HEK293. The settings on record: glycan lost; control: wild type.
A short description of data set [2]: Western blot, B7-H5/GAPDH, HEK293 lysates. The note with it: glycan lost; control: wild type.

Take B7-H5/VISTA: N135A: the localisation_or_trafficking entry in data set [1] is “no change”. The expression_or_secretion entry in data set [2] is recorded as “no change”.

For the substance B7-H5/VISTA: N91A, the localisation_or_trafficking result in data set [1] is on record as “no change”. Also, the expression_or_secretion entry in data set [2] is listed as “no change”.

In the case of B7-H5/VISTA: N49A, the localisation_or_trafficking entry in data set [1] is reported as “no change”. For the same substance, in data set [2], the expression_or_secretion result is on record as “no change”.

As to B7-H5/VISTA: N128A, in data set [1], the localisation_or_trafficking entry was “no change”. In addition, the expression_or_secretion result in data set [2] is “no change”.

B7-H5/VISTA: N108A: in data set [1], the localisation_or_trafficking entry was “no change”. In data set [2], the expression_or_secretion entry is recorded as “no change”.

Source of the values: publication PMC11388181.
